These results are taken from patent publication US20110179505A1, “RODENT CANCER MODEL FOR HUMAN FGFR4 ARG388 POLYMORPHISM” (priority 2008, published 2011).

“Also recorded” adds a separate entry of the source.

The target of assay [1] is Epidermal Growth Factor Receptor (EGFR, SEQ ID NO: 77) (Homo sapiens (Human)) (UniProt P00533). Put plainly: cell-based or functional assay.
Assay [2] deals with human FGFR4 Arg388 (pLXSN-FGFR4 Arg388, overexpressed in MDA-MB-231 cells) (human) (UniProt P22455). The assay is described as follows: SILAC LC-MS/MS of FGFR4 immunoprecipitates, MDA-MB-231 cells; FGFR4 Arg388 against the reference FGFR4 Gly388.
human FGFR4 Arg388 (pLXSN-FGFR4 Arg388, overexpressed in MDA-MB-231 cells) (human), sequence (P22455 22-802 G388R): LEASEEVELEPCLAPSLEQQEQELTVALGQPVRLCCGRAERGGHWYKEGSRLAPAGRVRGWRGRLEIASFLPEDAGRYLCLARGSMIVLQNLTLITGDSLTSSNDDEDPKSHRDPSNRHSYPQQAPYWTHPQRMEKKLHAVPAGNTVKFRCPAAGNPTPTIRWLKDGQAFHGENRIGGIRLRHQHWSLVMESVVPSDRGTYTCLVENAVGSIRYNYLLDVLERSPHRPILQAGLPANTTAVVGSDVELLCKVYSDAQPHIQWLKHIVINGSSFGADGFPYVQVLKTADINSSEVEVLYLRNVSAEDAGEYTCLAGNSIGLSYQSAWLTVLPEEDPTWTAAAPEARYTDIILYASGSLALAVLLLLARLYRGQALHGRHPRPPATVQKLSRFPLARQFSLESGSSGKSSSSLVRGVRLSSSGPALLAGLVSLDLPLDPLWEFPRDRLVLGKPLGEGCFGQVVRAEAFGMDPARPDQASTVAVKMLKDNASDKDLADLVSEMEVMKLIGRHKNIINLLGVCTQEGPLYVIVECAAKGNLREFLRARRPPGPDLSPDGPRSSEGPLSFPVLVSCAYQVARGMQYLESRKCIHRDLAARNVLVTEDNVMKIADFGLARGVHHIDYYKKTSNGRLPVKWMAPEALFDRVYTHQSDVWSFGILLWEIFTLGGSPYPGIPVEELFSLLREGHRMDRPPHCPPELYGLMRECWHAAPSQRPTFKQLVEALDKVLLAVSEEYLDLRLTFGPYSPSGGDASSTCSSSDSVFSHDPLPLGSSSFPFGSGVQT
Assay [3] has the same target. The assay is described as follows: SILAC LC-MS/MS of FGFR4 immunoprecipitates, MDA-MB-231 cells overexpressing FGFR4 Arg388, normalized to empty pLXSN control cells.
Assay [4] has as its target human FGFR4 Gly388 (pLXSN-FGFR4 Gly388, overexpressed in MDA-MB-231 cells) (human) (UniProt P22455). The assay is described as follows: SILAC LC-MS/MS of FGFR4 immunoprecipitates, MDA-MB-231 cells overexpressing FGFR4 Gly388, normalized to empty pLXSN control cells.
In assay [5] the target is T1, mouse wild-type FGFR4 (FGFR4 Gly385) (mouse, UniProt Q03142 17-799).
T1 construct: Endogenous hepatic FGFR4, immunoprecipitated from mouse liver lysates; also called hepatic FGFR4
T1 sequence (Q03142 17-799 E673G limits assumed): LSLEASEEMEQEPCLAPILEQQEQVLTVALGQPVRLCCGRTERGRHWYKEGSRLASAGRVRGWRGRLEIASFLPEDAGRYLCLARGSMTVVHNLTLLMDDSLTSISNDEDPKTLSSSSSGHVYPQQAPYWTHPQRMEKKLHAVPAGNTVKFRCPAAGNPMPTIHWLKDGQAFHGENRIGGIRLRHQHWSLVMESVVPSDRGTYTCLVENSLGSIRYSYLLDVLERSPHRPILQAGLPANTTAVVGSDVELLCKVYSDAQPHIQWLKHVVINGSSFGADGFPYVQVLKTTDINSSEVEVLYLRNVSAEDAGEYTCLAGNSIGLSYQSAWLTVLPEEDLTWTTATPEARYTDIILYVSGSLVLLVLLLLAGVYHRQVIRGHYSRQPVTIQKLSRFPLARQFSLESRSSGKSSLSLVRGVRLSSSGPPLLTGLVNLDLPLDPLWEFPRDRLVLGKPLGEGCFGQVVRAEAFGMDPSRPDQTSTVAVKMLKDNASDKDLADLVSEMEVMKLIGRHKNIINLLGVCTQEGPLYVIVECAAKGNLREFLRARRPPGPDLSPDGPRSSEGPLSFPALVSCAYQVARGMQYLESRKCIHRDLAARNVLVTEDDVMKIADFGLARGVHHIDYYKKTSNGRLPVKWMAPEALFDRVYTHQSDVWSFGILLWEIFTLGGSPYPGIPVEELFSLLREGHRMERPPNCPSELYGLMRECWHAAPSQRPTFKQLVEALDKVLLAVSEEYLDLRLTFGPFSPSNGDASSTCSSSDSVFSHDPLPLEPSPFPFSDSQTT
The assay is described as follows: in vivo SILAC LC-MS/MS of FGFR4 immunoprecipitates from liver, labelled SILAC mouse against FGFR4 KO mouse. As for the experimental part:
The hepatic FGFR4 of the unlabelled mouse was immunoprecipitated in the presence of the blocking peptides to detect unspecific binding partners. […] Unspecific interaction partners should display a 1:1 ratio compared to the unlabelled fraction incubated with the blocking peptides. […] For that reason, the investigation of hepatic FGFR4 interaction partners was done with the liver of FGFR4 KO mice (Yu et al., 2000).
Here, significance (PEP<0.03), amount of razor peptides (RPs, >1) and an upregulation of at least 3 fold in FGFR4 KO experiments identified potential FGFR4 interaction partner.

Assay [6] deals with T2, mouse FGFR4 Arg385 (knock-in allele) (mouse, UniProt Q03142 17-799).
T2 construct: Endogenous FGFR4 of FGFR4 Arg385 KI mice (liver lysates) and of MEFs derived from them
T2 sequence (Q03142 17-799 G385R/E673G limits assumed): as the sequence (Q03142 17-799 E673G limits assumed) above, with G369R counted along it
The assay is described as follows: in vivo SILAC LC-MS/MS of FGFR4 immunoprecipitates from liver; FGFR4 Arg385 against the reference FGFR4 Gly385.

Assay [7] deals with T2, mouse FGFR4 Arg385 (knock-in allele). Put plainly: in vivo SILAC LC-MS/MS of FGFR4 immunoprecipitates from liver, FGFR4 Arg385 mouse with the labelled SILAC mouse as internal standard.
Assay [8] addresses T1, mouse wild-type FGFR4 (FGFR4 Gly385). Put plainly: in vivo SILAC LC-MS/MS of FGFR4 immunoprecipitates from liver, FGFR4 Gly385 mouse with the labelled SILAC mouse as internal standard.
For assay [9], the system named is FGFR4 Arg/Arg385 MEFs. Put plainly: Apoptosis assay in MEFs (propidium-iodide, FACS) after chemotherapeutic drugs. The assay is classed as cell-based, mouse. As for the experimental part:
Transmigration of MEFs were analysed in Boyden Chambers (Schubert & Weiss, Germany). 1.5×10^4 cells were seeded in starving medium containing 0% FCS. Migration was performed to DMEM containing 4% FCS for 16 h. Afterwards cells were stained with crystal violet and migrated cells were analysed macroscopically. To perform an apoptosis assay 1.5×10^4cells in DMEM containing 10% FCS were seeded in 12-well plates. After 24 h cells were treated with 0.5 μM doxorubicin for 48 h. Afterwards cells were stained with propidium-iodide and apoptotic cells were determined in a FACS (FACScalibus, BD) analysis as previously described (27).
To support these observations by molecular analytical methods we determined whether the FGFR4 Arg385 allele is hyperactivated in MEFs and thereby enhances cell transformation. The expression of the different FGFR4 isoforms is equal in MEFs as well as its basic state of phosphorylation (FIG. 9A). Next, we wanted to check if FGFR4 Arg385 facilitates cell survival or influences physiological processes of MEFs. Therefore we analysed the number of population doublings until the cells enter senescence in vitro and additionally stained MEFs, subcultured for 30 days, for […] to visualize senescent cells. However, we found no obvious differences between the different FGFR4 alleles (FIG. 9B). […] Further we wanted to investigate the influence of the FGFR4 Arg385 allele on physiological processes. As a motility enhancing effect of is the FGFR4 Arg388 allele had already been shown by Bange and colleagues with a human mammary carcinoma cell line, we wanted to confirm this observation in MEFs, but as shown in FIG. 9C no difference observed when Gly/Gly—were compared to Arg/Arg-MEFs. Contrarily, Arg-carrying MEFs seemed to strongly support cell survival in response to DNA-damaging agents. […] Additionally, we investigated the anti-apoptotic impact of the FGFR4 Arg385 after treatment with other chemotherapeutic drugs.

In assay [1], “human FGFR4 Arg388 (pLXSN-FGFR4 Arg388, overexpressed in MDA-MB-231 cells) (from UniProt P22455 22-802) (receptor)” showed an IC50 of Gefitinib, MTT-proliferation assay of MDA-MB-231 cells overexpressing the FGFR4 Arg388 allele of 9.53 µM and an inhibition of migration by Gefitinib (2.5 µM), Boyden Chamber Assay, 15 hours, against DMSO treated control cells of 22.3%.

On to “Ephrin type-A receptor 2 (from UniProt P29317 24-976)”, for which the ratio FGFR4Arg388/Gly388 (n = 2) in assay [2] stood at 1.05 fold. Moreover, in assay [3], the ratio FGFR4Arg388 (n = 2) was 8.74 fold. Also, the ratio FGFR4Gly388 (n = 2) in assay [4] was found to be 7.97 fold.

Consider “Epidermal growth factor receptor (mouse liver, Egfr) (from UniProt Q01279 25-1210)”, for which the ratio FGFR4 KO (n = 2) in assay [5] is 5.8 fold. Besides, the ratio FGFR4 Arg385/Gly385 in assay [6] was 3.8. In assay [7], the ratio FGFR4 Arg385 (n = 2) was 1.3. Besides, in assay [8], the ratio FGFR4 Gly385 (n = 1) worked out at 0.3.

In the case of “Hydroxyacid oxidase 1 (from UniProt Q9WU19 1-370) (enzyme)”, in assay [5], the ratio FGFR4 KO (n = 2) stood at 19.7 fold. Also, the ratio FGFR4 Arg385/Gly385 in assay [6] amounted to 27.8. Besides, in assay [7], the ratio FGFR4 Arg385 (n = 2) worked out at 1.6. For the same molecule, the ratio FGFR4 Gly385 (n = 1) in assay [8] turned out to be 0.1.

In the case of “Hydroxymethylglutaryl-CoA synthase (from UniProt P54869 38-508) (enzyme)”, the ratio FGFR4 KO (n = 2) in [5] was 3.3 fold. For the same molecule, in [6], the ratio FGFR4 Arg385/Gly385 was found to be 1. Besides, the ratio FGFR4 Arg385 (n = 2) in [7] was 1.8. For the same molecule, the ratio FGFR4 Gly385 (n = 1) in assay [8] came to 1.8.

Consider `CC(=O)O[C@H]1C(=O)[C@@]2(C)[C@H]([C@H](OC(=O)c3ccccc3)[C@]3(O)C[C@H](OC(=O)[C@H](O)[C@@H](NC(=O)c4ccccc4)c4ccccc4)C(C)=C1C3(C)C)[C@]1(OC(C)=O)CO[C@@H]1C[C@@H]2O` [taxol], for which, in assay [9] (taxol, 48 hrs), the “apoptotic response in Gly/Gly385 MEFs compared to Arg/Arg385 MEFs” value is “no differences in apoptotic response”.

As for `N.N.[Cl][Pt][Cl]` [cisplatin], in [9] (3 μM cisplatin, 48 hrs, p=0.03), the “apoptotic cells in Arg385 carrying MEFs compared to Gly/Gly385 MEFs” value is “decreased apoptosis; also recorded: reduced number of apoptotic cells”.

In assay [1], “human FGFR4 Gly388 (pLXSN-FGFR4 Gly388, overexpressed in MDA-MB-231 cells) (from UniProt P22455 22-802) (receptor)” yielded an IC50 of Gefitinib, MTT-proliferation assay of MDA-MB-231 cells expressing FGFR4 Gly388 (same value for empty pLXSN) of 18.7 µM and an inhibition of migration by Gefitinib (2.5 µM), Boyden Chamber Assay, 15 hours, against DMSO treated control cells of 6.28%.

For “Formimidoyltransferase-cyclodeaminase (from UniProt Q91XD4 1-541) (enzyme)”, the ratio FGFR4 KO (n = 2) in assay [5] worked out at 3.5 fold. Also, the ratio FGFR4 Arg385/Gly385 in assay [6] came to 2.7. The ratio FGFR4 Arg385 (n = 2) in [7] amounted to 1. Besides, the ratio FGFR4 Gly385 (n = 1) in assay [8] was 0.4.

On to “Propanoyl-CoA C-acyltransferase (from UniProt P32020 1-547) (enzyme)”, for which, in assay [5], the ratio FGFR4 KO (n = 2) is 7.8 fold. The ratio FGFR4 Arg385/Gly385 in [6] came to 18.6. In addition, the ratio FGFR4 Arg385 (n = 2) in assay [7] came to 3.6. Moreover, in [8], the ratio FGFR4 Gly385 (n = 1) came out at 0.2.

In the case of `COc1cccc2c1C(=O)c1c(O)c3c(c(O)c1C2=O)C[C@@](O)(C(=O)CO)C[C@@H]3O[C@H]1C[C@H](N)[C@H](O)[C@H](C)O1` [doxorubicin], the “apoptotic cells in Arg/Arg385 MEFs compared to Gly/Gly385 MEFs” value in [9] (0.5 μM doxorubicin, 48 h, p=0.03) was “decreased percentage of apoptotic cells; also recorded: reduced number of apoptotic cells”.

Consider “Protein tyrosine phosphatase, receptor type, F (from UniProt P10586 30-1907)”, for which the ratio FGFR4Arg388/Gly388 (n = 2) in assay [2] is 1.06 fold. Besides, in assay [3], the ratio FGFR4Arg388 (n = 2) amounted to 14.3 fold. The ratio FGFR4Gly388 (n = 2) in [4] stood at 16.6 fold.

B1: Beta-klotho (receptor, mouse, UniProt Q99N32 1-1043, looked up)
chain: MKTGCAAGSPGNEWIFFSSDERNTRSRKTMSNRALQRSAVLSAFVLLRAVTGFSGDGKAIWDKKQYVSPVNPSQLFLYDTFPKNFSWGVGTGAFQVEGSWKTDGRGPSIWDRYVYSHLRGVNGTDRSTDSYIFLEKDLLALDFLGVSFYQFSISWPRLFPNGTVAAVNAQGLRYYRALLDSLVLRNIEPIVTLYHWDLPLTLQEEYGGWKNATMIDLFNDYATYCFQTFGDRVKYWITIHNPYLVAWHGFGTGMHAPGEKGNLTAVYTVGHNLIKAHSKVWHNYDKNFRPHQKGWLSITLGSHWIEPNRTDNMEDVINCQHSMSSVLGWFANPIHGDGDYPEFMKTGAMIPEFSEAEKEEVRGTADFFAFSFGPNNFRPSNTVVKMGQNVSLNLRQVLNWIKLEYDDPQILISENGWFTDSYIKTEDTTAIYMMKNFLNQVLQAIKFDEIRVFGYTAWTLLDGFEWQDAYTTRRGLFYVDFNSEQKERKPKSSAHYYKQIIQDNGFPLKESTPDMKGRFPCDFSWGVTESVLKPEFTVSSPQFTDPHLYVWNVTGNRLLYRVEGVRLKTRPSQCTDYVSIKKRVEMLAKMKVTHYQFALDWTSILPTGNLSKVNRQVLRYYRCVVSEGLKLGVFPMVTLYHPTHSHLGLPLPLLSSGGWLNMNTAKAFQDYAELCFRELGDLVKLWITINEPNRLSDMYNRTSNDTYRAAHNLMIAHAQVWHLYDRQYRPVQHGAVSLSLHCDWAEPANPFVDSHWKAAERFLQFEIAWFADPLFKTGDYPSVMKEYIASKNQRGLSSSVLPRFTAKESRLVKGTVDFYALNHFTTRFVIHKQLNTNRSVADRDVQFLQDITRLSSPSRLAVTPWGVRKLLAWIRRNYRDRDIYITANGIDDLALEDDQIRKYYLEKYVQEALKAYLIDKVKIKGYYAFKLTEEKSKPRFGFFTSDFRAKSSVQFYSKLISSSGLPAENRSPACGQPAEDTDCTICSFLVEKKPLIFFGCCFISTLAVLLSITVFHHQKRRKFQKARNLQNIPLKKGHSRVFS
notes: Endogenous protein co-immunoprecipitated with hepatic FGFR4; also called βKlotho
As for B1, the “ratio FGFR4 KO (n = 2)” value in [5] amounted to 28.2 fold. In addition, the “ratio FGFR4 Arg385/Gly385” value in assay [6] was 0.7 ratio. Moreover, the “ratio FGFR4 Arg385 (n = 2)” value in [7] is 2.4 ratio. In assay [8], the “ratio FGFR4 Gly385 (n = 1)” value was determined as 3.2 ratio.
